Changes are numbered by the printed parent chain. Like-named read-outs stand apart in the source and are kept apart here. Values belong to the binder of their own block, whether it stands above or below them.
What was measured:
Test in all cases: pull-down
GST-tagged Mgs1 [1] = target: T1, GST-tagged Mgs1 (S. cerevisiae, UniProt P40151 1-587)
T1 sequence: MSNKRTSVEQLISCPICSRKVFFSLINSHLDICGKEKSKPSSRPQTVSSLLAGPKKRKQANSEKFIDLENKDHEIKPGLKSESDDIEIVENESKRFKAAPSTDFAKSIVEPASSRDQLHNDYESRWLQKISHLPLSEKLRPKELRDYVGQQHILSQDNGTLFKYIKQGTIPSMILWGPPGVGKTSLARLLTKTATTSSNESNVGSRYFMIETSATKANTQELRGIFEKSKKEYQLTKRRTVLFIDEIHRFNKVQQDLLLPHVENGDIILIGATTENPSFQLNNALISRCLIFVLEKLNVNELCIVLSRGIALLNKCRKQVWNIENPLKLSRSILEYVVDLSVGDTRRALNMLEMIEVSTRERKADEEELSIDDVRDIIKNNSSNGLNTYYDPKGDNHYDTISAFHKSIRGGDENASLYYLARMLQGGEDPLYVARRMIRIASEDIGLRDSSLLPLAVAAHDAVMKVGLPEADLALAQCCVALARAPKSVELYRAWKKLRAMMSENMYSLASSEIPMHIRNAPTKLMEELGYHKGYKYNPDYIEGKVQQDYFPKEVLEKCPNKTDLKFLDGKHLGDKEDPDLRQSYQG

GST-tagged Mgs1* (D31A) [2] = target: T2, GST-tagged Mgs1* (D31A) (S. cerevisiae, UniProt P40151 1-587, D31A)
T2 sequence: T1 sequence with D31A

GST-tagged Mgs1 [3] = target: T1, GST-tagged Mgs1; remark: listed apart in the source
GST-tagged Mgs1* (D31A) [4] = target: T2, GST-tagged Mgs1* (D31A); remark: listed apart in the source

- binding result (GST-tagged Mgs1 [1]): binds
- binding result (GST-tagged Mgs1* (D31A) [2]): binds
B1: His6-tagged PCNA (natural protein)
chain: MLEAKFEEASLFKRIIDGFKDCVQLVNFQCKEDGIIAQAVDDSRVLLVSLEIGVEAFQEYRCDHPVTLGMDLTSLSKILRCGNNTDTLTLIADNTPDSIILLFEDTKKDRIAEYSLKLMDIDADFLKIEELQYDSTLSLPSSEFSKIVRDLSQLSDSINIMITKETIKFVADGDIGSGSVIIKPFVDMEHPETSIKLEMDQPVDLTFGAKYLLDIIKGSSLSDRVGIRLSSEAPALFQFDLKSGFLQFFLAPKFNDEE

- binding result (GST-tagged Mgs1 [3]): binds
- binding result (GST-tagged Mgs1* (D31A) [4]): binds
B2: untagged PCNA (unmodified) (natural protein)
chain: B1 chain

From paper PMC3245944 (Nucleic Acids Research, 2011)
